The experiment concerns the target recombinant pullulanase from Manihot esculenta Crantz (rMePUL), mature form without the transit peptide (Manihot esculenta Crantz (cassava)). Put plainly: SEC; purified rMePUL on an MAbPac SEC-1 column (4 x 300 mm), 25 mM phosphate buffer pH 6.8 with 300 mM NaCl, 0.2 mL/min, 30°C, A280; calibrated with Bio-Rad gel filtration standards; monomer and dimer peaks. (SEC sorts molecules by how far they enter the pores of the column.)

In the case of “recombinant pullulanase from Manihot esculenta Crantz (rMePUL), mature form without the transit peptide (enzyme)”, the stoichiometry N (commonly a count of units in the complex or per binding partner) was 2.

The record behind these values is paper PMC9911869.
